Molecular target: T1, AtDEG15 full length (yeast two-hybrid / three-hybrid fusion) (Arabidopsis thaliana, UniProt Q8VZD4 1-709)
T1 construct: AtDEG15, peroxisomal DEG protease of Arabidopsis thaliana (At1g28320); full-length coding region; Cloned both into pBridge and pGAD424; in the Y3H the full length stood in pBridge; also called AtDEG15_pBridge; AtDEG15_pGAD424; source: yeast two-hybrid fusion (S. cerevisiae AH109)
Assay: two-hybrid; Matchmaker GAL4 system, fusions in pBridge (DNA-binding domain) and pGAD424 (activation domain), S. cerevisiae AH109; HIS3 reporter (growth on His-free medium) and lacZ reporter (beta-galactosidase, Miller units)
Conditions: partners not purified

B1: AtCML3 full length (yeast two-hybrid fusion) (natural protein, Arabidopsis thaliana, UniProt Q9SRR7 1-153, looked up)
chain: MDQAELARIFQMFDRNGDGKITKQELNDSLENLGIYIPDKDLVQMIEKIDLNGDGYVDIEEFGGLYQTIMEERDEEEDMREAFNVFDQNRDGFITVEELRSVLASLGLKQGRTLEDCKRMISKVDVDGDGMVNFKEFKQMMKGGGFAALGSNL
notes: AtCML3, calmodulin-like protein of Arabidopsis thaliana (At3g07490); full-length coding region; Cloned both into pBridge and pGAD424; also called AtCML3_pGAD424; AtCML3_pBridge; source: yeast two-hybrid fusion (S. cerevisiae AH109)
beta-galactosidase activity, fold over the negative controls: 20 fold

From paper PMC3830196, “Calmodulin-like protein AtCML3 mediates dimerization of peroxisomal processing protease AtDEG15 and contributes to normal peroxisome metabolism” (Plant Molecular Biology, 2013)
